Test system: MS2 coat protein
Test: apparent KD of MS2 coat protein; designed switch direction (-1 OFF switch, 1 ON switch): -1; higher = weaker reporter binding
How it was run: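 For each design, the apparent KD is the median over clusters of curves fitted to normalised cluster fluorescence. Clusters held RNA switches with common flanks, transcribed on Illumina chips by stalled E. coli RNA polymerase. These were titrated with SNAP-549-labelled MS2 coat protein, doubling from 0.7 or 1.5 nM to 3 µM, without input, with 200 uM small-molecule ligand, or with an oligonucleotide input.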

[1] = Eterna round: R95, input ligand: microRNA oligo, concentration not stated
[2] = Eterna round: R95, input ligand: FMN 200 uM
[3] = Eterna round: R95, input ligand: none
[4] = input ligand: microRNA oligo, concentration not stated

## AAGAUUCUCAUGAGCUGGAACAUGAGGAUCACCCAUGUGUGUUGCUUUUUGCUCAAGGAAUCCAUUUCGAUCUUAUA [Eternabot (L1) Solution 43] (Eterna round: R97, puzzle: Sensor, turn-off variant 1)
Input ligand: FMN 200 uM
  apparent KD of MS2 coat protein: 0.0629 µM
Input ligand: none
  apparent KD of MS2 coat protein: 0.0718 µM

## ACGUAUAGAGGAUAUAGUGAAUAUUACAUGAGGAUCACCCAUGUUCUUCAAAGCAUAUUCCUAGAAGGCUGAUGAA [EX-5 Malc#13] (puzzle: Exclusion 5)
[1]
  apparent KD of MS2 coat protein: 0.0475 µM

## ACCGUGCAAGGAUAUCGUUACCUCGACAUGAGGAUCACCCAUGUGGCCAUAUAGCGAUUGCGAGAAGGUGCGGGUA [Aatveti] (puzzle: Exclusion 5)
[1]
  apparent KD of MS2 coat protein: 0.0852 µM

## AGAUUACGUUAGGAUAUCCGGCCUGACGAGGAUGGAGAAGGAGCGACAUGAGGAUCACCCAUGUGUGGCACUCC [Eternabot (L1) Solution 76] (Eterna round: R97, puzzle: Exclusion 6)
Input ligand: FMN 200 uM
  apparent KD of MS2 coat protein: 0.0177 µM
Input ligand: none
  apparent KD of MS2 coat protein: 0.0183 µM

## AGGAAGCAAGGAUAUACGAGGAGAAGGUGUCCAUCUAAAUGACAUGAGGAUCACCCAUGUAGAAGGUGCGAGAA [JR_Exclu2_Sub050] (puzzle: Exclusion 2)
[2]
  apparent KD of MS2 coat protein: 0.112 µM
[1]
  apparent KD of MS2 coat protein: 0.0474 µM
[3]
  apparent KD of MS2 coat protein: 0.0345 µM

## UUUUACAUAGGAUAUAGUUUGUUGUACAUGAGGAUCACCCAUGUUGUUGGUUGUGCUGUUCUAGAAGGAUGUUUCU [JR_E5_Sub014] (puzzle: Exclusion 5)
[1]
  apparent KD of MS2 coat protein: 0.0373 µM

## AGUACUAACACGAAAGUGUUAGUACUAUAAGCUUGUGAAACAUGAGGAUCACCCAUGUCCUCAUAAGCUCGUCUUAU [Mat - Sensor v3 - Turn-off var 2 - D102] (puzzle: Sensor v3, turn-off variant 2)
[2]
  apparent KD of MS2 coat protein: 0.0173 µM
[1]
  apparent KD of MS2 coat protein: 0.779 µM
[3]
  apparent KD of MS2 coat protein: 0.017 µM

## UGCGGGCUUUUGAGACCUCACAUGAGGAUCACCCAUGUGCUUGUCUUGUGAGUGGGUAGGUCGUUGGCUGACUCACG [Sensor-V1 #99] (Eterna round: R97, puzzle: Sensor, turn-off variant 1)
Input ligand: FMN 200 uM
  apparent KD of MS2 coat protein: 0.0234 µM
Input ligand: none
  apparent KD of MS2 coat protein: 0.0231 µM

## AUGUGGGUAUGAAGGUGUAGAUAGAGCGUACGUUAUGGAACAUGAGGAUCACCCAUGUAGCUUUUUGCUCGUCUUAU [JR_SV3TOV2_Sub034] (puzzle: Sensor v3, turn-off variant 2)
[2]
  apparent KD of MS2 coat protein: 0.0368 µM
[1]
  apparent KD of MS2 coat protein: 0.0409 µM
[3]
  apparent KD of MS2 coat protein: 0.0404 µM

## ACUAGAUGAGGAUAUGCACAUUUUAGUGUUCCUCUAGAUUAACAUGAGGAUCACCCAUGUAGAAGGCGUCAUUA [Exclusion 2 - 14] (puzzle: Exclusion 2)
[1]
  apparent KD of MS2 coat protein: 0.0499 µM

## GAGUUAGCGUGUGGCACAUACAUGAGGAUCACCCAUGUUAGCUUAUAUAUUGCUCGUCUUAUAACAACACUUAACUG [Mod JX-Electric-eye5] (Eterna round: R97, puzzle: Sensor, turn-off variant 1)
Input ligand: FMN 200 uM
  apparent KD of MS2 coat protein: 0.0225 µM
Input ligand: none
  apparent KD of MS2 coat protein: 0.0239 µM

## UUUUACAGGCUUAGAUCCUACAUGAGGAUCACCCAUGUGGAGGCGUGUCGUGAGACAUGCCUCUAAGCUCGUCUUGU [JL TOV1 3.74] (Eterna round: R97, puzzle: Sensor, turn-off variant 1)
Input ligand: FMN 200 uM
  apparent KD of MS2 coat protein: 0.0862 µM
Input ligand: none
  apparent KD of MS2 coat protein: 0.103 µM

## UCAAAGUCAGGAUAUACAUGAGGAUCACCCAUGUAAAAUUUUAAUUUAAUUUGAAGGUGUAGAAGGGACAAACC [Ex3 #33] (Eterna round: R97, puzzle: Exclusion 3)
Input ligand: FMN 200 uM
  apparent KD of MS2 coat protein: 0.0183 µM
Input ligand: none
  apparent KD of MS2 coat protein: 0.0316 µM

## GCCGUAAAUGUGAGGAUAUACCUAUGGAAACAUAGGUAGAAGGCACAUGAGGAUCACCCAUGUUCUUAAUCGGC [Mat - Exclusion 4 - Eli Mod - D2] (Eterna round: R97, puzzle: Brourd's mod of Exclusion 4)
Input ligand: FMN 200 uM
  apparent KD of MS2 coat protein: 0.689 µM
Input ligand: none
  apparent KD of MS2 coat protein: 0.212 µM

## GUCCUACAUGAGGAUCACCCAUGUAAGGAUAUGCUAGCGGUCGGAUGACUGACUGCUAGCAGAAGGUACAUGAU [Mat - Mod of JL D78] (puzzle: Exclusion 1)
[1]
  apparent KD of MS2 coat protein: 0.0155 µM

## CCGGUUGGCGCAGGAUAUACAUGAGGAUCACCCAUGUUCAUGAGGAUCACUCAUGAGUUUUUGUUGUAGAAGGGUGGCCCGGCC (Eterna round: R96, puzzle: Exclusion NG 2)
Input ligand: FMN 200 uM
  apparent KD of MS2 coat protein: 1.17 µM
[4]
  apparent KD of MS2 coat protein: 0.605 µM
Input ligand: none
  apparent KD of MS2 coat protein: 0.933 µM

## UUUUAACAUGAGGAUCACCCAUGUGAGGAUAUCGAAAUUUAUAUUAAUAUUUAUAAUUCGAGAAGGCACAUUUU [JMF 53] (puzzle: Exclusion 1)
[1]
  apparent KD of MS2 coat protein: 0.155 µM

## UUUUUAUAUGAAGGAUAUACUUAACAUGAGGAUCACCCAUGUGGUGUUGUGAGUGAGUGAGUUUAGUAGAAGGUCAAUUCGUUU [JMF's solution 80] (Eterna round: R96, puzzle: Exclusion NG 2)
Input ligand: FMN 200 uM
  apparent KD of MS2 coat protein: 0.823 µM
[4]
  apparent KD of MS2 coat protein: 0.294 µM
Input ligand: none
  apparent KD of MS2 coat protein: 0.356 µM

## CAGCUGAAAGUGAGGAUAUCUAGAGCUGCGGCUCUAGAGAAGGCACAUGAGGAUCACCCAUGUCUCAACAGCUG [BmEx4/1-A3] (Eterna round: R97, puzzle: Brourd's mod of Exclusion 4)
Input ligand: FMN 200 uM
  apparent KD of MS2 coat protein: 0.0519 µM
Input ligand: none
  apparent KD of MS2 coat protein: 0.0181 µM

Reference: the supplement of paper PMC9170038
